In experiment [1] the target is T1, Human OX40 expressed on transfected Jurkat or CHO cells (human, UniProt P43489 29-277).
T1 construct: also called human OX40/Jurkat; human OX40/CHO
T1 sequence: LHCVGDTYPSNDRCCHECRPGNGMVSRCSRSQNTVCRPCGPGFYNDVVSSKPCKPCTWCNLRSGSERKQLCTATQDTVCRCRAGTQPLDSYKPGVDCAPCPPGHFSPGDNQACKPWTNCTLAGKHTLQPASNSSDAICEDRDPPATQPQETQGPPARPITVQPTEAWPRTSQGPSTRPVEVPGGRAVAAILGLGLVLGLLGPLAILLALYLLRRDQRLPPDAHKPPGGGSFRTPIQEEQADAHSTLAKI
The experiment can be described thus: flow cytometry, whole cell binding to human OX40-expressing Jurkat cells, Alexa Fluor488 anti-human IgG Fc, Geo MFI.

The target of experiment [2] is T2, Human CTLA4 expressed on transfected CHO or Jurkat cells (human, UniProt P16410 36-222).
T2 construct: also called human CTLA4/CHO; human CTLA4/Jurkat
T2 sequence: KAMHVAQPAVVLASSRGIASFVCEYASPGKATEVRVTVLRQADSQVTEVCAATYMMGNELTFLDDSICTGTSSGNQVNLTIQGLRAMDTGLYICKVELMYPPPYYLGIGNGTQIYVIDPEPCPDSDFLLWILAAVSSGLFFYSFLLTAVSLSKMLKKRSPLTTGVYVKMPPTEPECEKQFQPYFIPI
The experiment in a line: flow cytometry, whole cell binding to human CTLA4-expressing CHO cells, Alexa Fluor488 anti-human IgG Fc, Geo MFI. (In general: A flow cytometer gives signals particle by particle.)

Experiment [3] concerns the target T3, Fc-fused mouse OX40 ECD (mouse, UniProt P47741 20-211).
T3 construct: extracellular domain; also called recombinant mouse OX40 ECD; not shown: Fc
T3 sequence (looked up): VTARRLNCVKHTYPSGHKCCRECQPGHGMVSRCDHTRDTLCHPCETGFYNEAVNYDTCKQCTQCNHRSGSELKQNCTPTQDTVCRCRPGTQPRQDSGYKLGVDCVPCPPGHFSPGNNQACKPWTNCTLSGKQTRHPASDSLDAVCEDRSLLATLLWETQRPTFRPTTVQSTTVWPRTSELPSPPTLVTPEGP
The experiment in a line: ELISA: plate coated with Fc-fused mouse OX40 ECD, biotin-labeled c5E10, HRP-avidin, OD450. The method, then:
The protein was expressed in ExpiCHO cells, and purified by Protein A affinity chromatography. […] Briefly, 1 μg/ml of Fc-fused human or mouse OX40 ECD was coated in a 96-well high binding plate at 4° C. overnight.
Background: In an ELISA, binding on a coated surface is turned into a signal by an enzyme label.

Experiment [4] has as its target T4, Recombinant human OX40 extracellular domain fused to human IgG1 Fc (human, UniProt P43489 29-214).
T4 construct: Produced in-house; also called OX40 ECD-Fc; human OX40 ECD-Fc; not shown: human IgG1 Fc
T4 sequence: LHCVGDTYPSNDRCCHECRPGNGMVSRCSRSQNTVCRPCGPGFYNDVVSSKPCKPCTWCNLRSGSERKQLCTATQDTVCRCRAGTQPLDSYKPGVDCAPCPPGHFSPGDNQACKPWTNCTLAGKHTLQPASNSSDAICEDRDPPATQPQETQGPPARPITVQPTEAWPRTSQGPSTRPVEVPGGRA
The experiment can be described thus: ELISA of VHH supernatants on plates pre-coated with human OX40 ECD-Fc or human OX40 ECD-His.

Changes are numbered by the printed parent chain.

B1: Ipilimumab (anti-CTLA4 antibody) (antibody, V domains shown)
VH: QVQLVESGGGVVQPGRSLRLSCAASGFTFSSYTMHWVRQAPGKGLEWVTFISYDGNNKYYADSVKGRFTISRDNSKNTLYLQMNSLRAEDTAIYYCARTGWLGPFDYWGQGTLVTVSS
VL: not shown
Consider B1, for which, in experiment [1], the binding result is listed as “no binding”.

B2: c5E10 chimeric bivalent antibody (llama VHH clone 5E10 fused to human IgG1 Fc) (antibody, V domains shown)
VH: QVKLEESGGGSVQSGGSLRLACSASGPLGYPSIAWFRQVTGKDQEFVAGIAWSGGDTYYADSVKGRFAISRDTDRNTVELQMNNLKPEDTAVYYCAADTVVHYMGRHDIRDREEYDHWGQGTQVTVSS
notes: Bivalent VHH-Fc, human IgG1 Fc; also called c5E10-Fc; c5E10-bi
In the case of B2, the binding result in experiment [2] and in experiment [3] was “no binding” throughout.

B3: 5E10 llama VHH (VHH)
VHH: B2 VH with Q120P
notes: VHH secreted into the culture supernatant from phagemid pADL-23c; also called c5E10 VHH
In the case of B3, the binding result in experiment [4] was “binds”.
